Experimental findings from US12275759B2, “Hepatitis B virus replication inhibitor and pharmaceutical composition for treating hepatitis B comprising the same” (RIKEN, priority 2018, dated 2025) are described below.

Holding throughout (format): cell-based, hepatitis B virus
Assay [1] has as its system HBV replication. Nature of the assay: system for evaluating HBV replication activity (reporter (−) DNA quantitative PCR) in HeLa cells, with wild type HBc. The note with it: for inhibitory effect on HBV replication: pCI-HBc:pCI-ΔHBc = 9:26, 24 hours culture, amount of reporter (−) DNA vs positive control (empty vector), FIG. 7, 9, 11A; for inhibitory activity on HBV replication compared to wild type pCI-ΔHBc(α1-4b): single ratio as in Example 1, FIG. 11A. From the text:
The effect of each of the aforementioned ΔHBc expression vector (pCI-ΔHBc) on HBV replication was examined using the system for evaluating HBV replication activity described in WO2018/030534 developed by the present inventors.
Specifically, the system for evaluating HBV replication activity consisting of the vector for evaluating HBV replication activity (pBB-intron) encoding the reporter pgRNA shown in FIG. 5A, the HBV-P expression vector (pCI—HBV-Pol) shown in FIG. 5B, the HBc expression vector (pCI-HBc) shown in FIG. 5C, and the HBx expression vector (pCI-HBx) shown in FIG. 5D was introduced into HeLa cells together with each pCI-ΔHBc. The introduction ratio of the respective expression vectors was pBB-intron: pCI-HBc: pCI—HBV-Pol: pCI-HBx: pCI-ΔHBc=13:9:3:1:26. According to this ratio, the amount of ΔHBc is about three times (2.89 times) as much as that of the wild type HBc functioning in HBV replication. As a positive control, an empty vector (pCI) was introduced at the same ratio as pCI-ΔHBc. For gene introduction into HeLa cells, the electroporation method was used. Using an Electroporator Nepa21 (Nepa Gene Co., Ltd.) 10 μg of DNA was introduced into approximately 1×10^6 cells under the condition of 125 V/2.5 ms pulse length. The HeLa cells after gene introduction were cultured in DMEM to which 2 mL of 10% FBS was added in the presence of 5% CO2 at 37° C. for 24 hours.
When the vector for evaluating HBV replication activity (pBB-intron) described above is introduced into HeLa cells, pre-mRNA shown in FIG. 6A is synthesized by RNA-pol II in HeLa cells, then an intron comprised in the reporter sequence of pBB-intron is immediately removed by pre-mRNA splicing in HeLa cells. […] The amount of this reporter (−) DNA reflects the replication activity and replication amount of HBV. Therefore, when DNA is extracted from the cells in which the system for evaluating HBV replication activity and pCI-ΔHBc are introduced, the amount thereof is quantified with a primer set specific to the reporter (−) DNA, and then compared with the amount of the positive control, the effect of pCI-ΔHBc on the HBV replication can be evaluated.
DNA was extracted from HeLa cells after culture using DNeasy Mini (Qiagen N.V.). Then, quantitative PCR was performed using a primer set specific to the reporter (−) DNA after reverse transcription. For primers, a forward primer (Primer F) consisting of the base sequence shown in SEQ ID NO: 23, and a reverse primer (Primer R) consisting of the base sequence shown in SEQ ID NO: 24 were used. […] Therefore, it functions as a primer only when there is a reporter (−) DNA having the reporter sequence from which the intron has been removed, and the DNA fragment of 131 bases is amplified.
The basic procedures were in accordance with Example 1. As pCI-ΔHBc to be introduced into HeLa cells together with the system for evaluating HBV replication activity, only pCI-ΔHBc(α1-4b) was used. The introduction ratio of the respective expression vectors was set such that the ratio of pCI-HBc: pCI—HBV-Pol: pCI-HBx was 9:3:1, and the ratio of pBB-intron: pCI-HBc/pCI—HBV-Pol/pCI-HBx was 1:1. Then, only the system for evaluating HBV replication activity in which the ratio of pCI-ΔHBc(α1-4b): pBB-intron/pCI-HBc/pCI—HBV-Pol/pCI-HBx was adjusted to 1:26, 3:26, 9:26, or 26:26, was introduced as a positive control. In each sample, an empty vector (pCI) was used for adjustment so that the amount of the vector to be introduced is the same.

In assay [2] the test system is HBV replication by HBc-T33N. The experiment in a line: system for evaluating HBV replication activity in HeLa cells with HBc-T33N in place of HBc-WT. The note with it: GLS4 0.08 to 5 μM, FIG. 13. Here is the method: The T residue at position 33 was substituted with an N residue (denoted as T33N) by a site-directed mutagenesis method using PrimeSTAR Mutagenesis Basal Kit (Takara Bio Inc.) using the full length HBc expression vector (pCI-HBc) of genotype C used in Example 1 as the template. The T33N mutant of the full length HBc having introduced the point mutation is denoted as HBc-T33N.
The measurement of the HBV replication activity by HBc-WT or HBc-T33N was performed in accordance with the method described in Example 1 using HBc-WT or HBc-T33N as HBc comprised in the system for evaluating HBV replication described in Example 1 in the presence of GLS4 at a concentration of 0 μM, 0.08 μM, 0.16 μM, 0.31 μM, 0.63 μM, 1.25 μM, 2.5 μM, or 5 μM. Based on the obtained measurement value of HBV replication activity (amount of reverse transcribed HBV DNA), the efficiency for inhibition of HBV replication (%) was calculated.
The evaluation of the inhibitory effect on HBV replication of the spike region ΔHBc(α1-4b) was in accordance with the method described in Example 2. However, in this Example, HBc-WT or HBc-T33N was used as the HBc comprised in the system for evaluating HBV replication described in Example 2.

Assay [3] has as its system HBV replication. Nature of the assay: system for evaluating HBV replication activity (reporter (−) DNA quantitative PCR) in HeLa cells, with wild type HBc. The settings on record: GLS4 0.08 to 5 μM, HBc-WT in the system; FIG. 13.
A further assay relates to full length HBc. Nature of the assay: Western blotting under non-reducing conditions of HBc dimer and multimer formation in HeLa cells. The settings on record: PA-tagged ΔHBc coexpressed with full length HBc in HeLa cells, antibody #511; FIG. 12A. Here is the method:
Each of the expression vectors of the wild type full length HBc (HBc-WT), and mutant full length HBc (HBc-F23A and HBc-L42A) was introduced into HeLa cells, which were cultured for 24 hours. Then proteins were extracted with a WB lysis buffer (1% Triton, 25 mM Tris pH 7.4, 150 mM NaCl). After addition of CuSO4 (100 μM), the protein extract was incubated at room temperature for 20 min, and neutralized with 1 mM EDTA, to which α13-ME-free SDS-PAGE sample buffer was added. Then SDS-PAGE was performed using a 10 to 20% polyacrylamide gel (SuperSep™ Ace, FUJIFILM Wako Pure Chemical Corporation). After the electrophoresis, the proteins were transferred to a PVDF membrane using a semi-dry blotter, and Western blotting was performed using a mouse anti-human HBc monoclonal antibody (#511).
The basic procedures were in accordance with the method described in Example 4. pCI-ΔHBc(α1-4b)-PA alone, or pCI-ΔHBc(α1-4b)-PA and pCI-ΔHBc(α1-4b)-F23A-PA at a ratio of 1:1 were introduced into HeLa cells.
A general note: A western blot detects proteins with antibodies after separation by electrophoresis.

Where a chain is given by its changes, count along the chain named. Names may count otherwise.

As for “α4ab (MSNLEDPASRELVVSYVNVNMGLKIRQLLWFHISCLTFG)”, the “inhibitory effect on HBV replication” value with HBV replication [1] (HeLa cells) was “inhibitory activity on HBV replication was lost”. Turning to `CCOC(=O)C1=C(CN2CCOCC2)NC(c2nccs2)=NC1c1ccc(F)cc1Br` (stereo not drawn) [GLS4], in assay [2], the “inhibitory effect on HBV replication by HBc-T33N (efficiency of inhibition)” value is “did not exhibit inhibitory effect on HBV replication by HBc-T33N”. For the same molecule, the “inhibitory effect on HBV replication by HBc-WT (efficiency of inhibition)” value in the assay with HBV replication [3] was “inhibited HBV replication by HBc-WT in a concentration-dependent manner”. With “α1-2b (MDIDPYKEFGASVELLSFLPSDFFPSIRDLLDTASALYREALESPEHCS)”, the “inhibitory effect on HBV replication” value with HBV replication [1] (HeLa cells) is “inhibitory activity on HBV replication was lost”.

B1: α1-4a (protein)
chain: MDIDPYKEFGASVELLSFLPSDFFPSIRDLLDTASALYREALESPEHCSPHHTALRQAILCWGELMNLATWVGSNLEDPASRELVVSYVNV
B1: in the assay with HBV replication [1] (HeLa cells), the “inhibitory effect on HBV replication” value is given as “inhibitory activity on HBV replication was lost”.

B2: HR-RDBD (protein)
chain: MGRETVLEYLVSFGVWIRTPPAYRPPNAPILSTLPETTVVRRRGRSPRRRTPSPRRRRSQSPRRRRSQSRESQC
With B2, the “inhibitory effect on HBV replication” value in the assay on HBV replication [1] (HeLa cells) is “did not show the inhibitory activity on HBV replication”.

B3: α2-4b (protein)
chain: MFLPSDFFPSIRDLLDTASALYREALESPEHCSPHHTALRQAILCWGELMNLATWVGSNLEDPASRELVVSYVNVNMGLKIRQLLWFHISCLTFG
With B3, the “inhibitory effect on HBV replication” value with HBV replication [1] (HeLa cells) is reported as “inhibitory activity on HBV replication was lost”.

B4: α3-4b (protein)
chain: MSPEHCSPHHTALRQAILCWGELMNLATWVGSNLEDPASRELVVSYVNVNMGLKIRQLLWFHISCLTFG
On to B4, for which, in the assay with HBV replication [1] (HeLa cells), the “inhibitory effect on HBV replication” value is on record as “inhibitory activity on HBV replication was lost”.

B5: ΔHBc(α1-4b)-F23A (protein)
chain: MDIDPYKEFGASVELLSFLPSDAFPSIRDLLDTASALYREALESPEHCSPHHTALRQAILCWGELMNLATWVGSNLEDPASRELVVSYVNVNMGLKIRQLLWFHISCLTFG
Consider B5, for which the “dose-dependent inhibition of HBV replication” value in the assay on HBV replication [1] (HeLa cells, HBc-WT, ΔHBc/WT-HBc expression vector ratio 1/9, 3/9, 9/9, 26/9, FIG. 8, 11B, 14 left) is “inhibited HBV replication depending on its expression level”. For the same molecule, in the assay with HBV replication [1] (HeLa cells), the “inhibitory effect on HBV replication” value was “inhibitory effect on HBV replication activity was maintained” and the “inhibitory activity on HBV replication compared to wild type pCI-ΔHBc(α1-4b)” value is listed as “more strongly inhibited than in the cells having introduced the wild type pCI-ΔHBc(α1-4b)”. In addition, the “inhibitory activity on HBV replication compared to ΔHBc(α1-4b), dose series” value in the assay on HBV replication [1] (plasmids serially diluted with empty vector as in Example 2, FIG. 11B) is on record as “stronger inhibitory activity on HBV replication than ΔHBc(α1-4b)”. Besides, in the assay with full length HBc, the “effect on multimer formation of the full length HBc” value was “inhibited the normal multimer formation of the full length HBc”.

B6: ΔHBc(α1-4b)-L42A (protein)
chain: B5 chain with A23F, L42A
Consider B6, for which, in the assay on HBV replication [1] (HeLa cells), the “inhibitory effect on HBV replication” value is given as “inhibitory effect on HBV replication activity was maintained” and the “inhibitory activity on HBV replication compared to wild type pCI-ΔHBc(α1-4b)” value is listed as “reduced compared to the wild type pCI-ΔHBc(α1-4b)”.
